In US20100291638:

Key:
[1] = tested on: T1, DNA polymerase 3173 (uncultured hot spring virus (Octopus Spring)); settings: reverse transcription, 60 C 20 min, MgCl2 and MnCl2
T1 sequence: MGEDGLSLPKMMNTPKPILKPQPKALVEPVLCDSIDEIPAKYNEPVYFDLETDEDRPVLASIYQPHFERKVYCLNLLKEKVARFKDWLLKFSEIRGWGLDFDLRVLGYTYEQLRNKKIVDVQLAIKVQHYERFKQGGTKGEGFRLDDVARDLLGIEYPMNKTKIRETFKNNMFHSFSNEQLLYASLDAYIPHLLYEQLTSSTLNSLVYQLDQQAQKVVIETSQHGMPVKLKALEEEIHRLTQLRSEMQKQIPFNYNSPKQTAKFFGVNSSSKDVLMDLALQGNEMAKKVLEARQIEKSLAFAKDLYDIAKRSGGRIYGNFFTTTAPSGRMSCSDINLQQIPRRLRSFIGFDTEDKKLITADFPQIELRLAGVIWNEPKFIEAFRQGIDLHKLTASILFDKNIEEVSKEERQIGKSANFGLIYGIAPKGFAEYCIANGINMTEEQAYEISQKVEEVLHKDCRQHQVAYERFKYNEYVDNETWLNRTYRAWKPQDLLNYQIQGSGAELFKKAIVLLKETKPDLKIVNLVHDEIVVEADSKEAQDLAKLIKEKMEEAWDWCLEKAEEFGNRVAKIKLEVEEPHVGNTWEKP

[2] = target: MMLV reverse transcriptase (Moloney murine leukemia virus) (UniProt P03355); settings: reverse transcription, manufacturer's conditions
[3] = target: Tth DNA polymerase (UniProt P52028); settings: reverse transcription, manufacturer's conditions
Chain of UniProt P52028 (P52028 whole entry): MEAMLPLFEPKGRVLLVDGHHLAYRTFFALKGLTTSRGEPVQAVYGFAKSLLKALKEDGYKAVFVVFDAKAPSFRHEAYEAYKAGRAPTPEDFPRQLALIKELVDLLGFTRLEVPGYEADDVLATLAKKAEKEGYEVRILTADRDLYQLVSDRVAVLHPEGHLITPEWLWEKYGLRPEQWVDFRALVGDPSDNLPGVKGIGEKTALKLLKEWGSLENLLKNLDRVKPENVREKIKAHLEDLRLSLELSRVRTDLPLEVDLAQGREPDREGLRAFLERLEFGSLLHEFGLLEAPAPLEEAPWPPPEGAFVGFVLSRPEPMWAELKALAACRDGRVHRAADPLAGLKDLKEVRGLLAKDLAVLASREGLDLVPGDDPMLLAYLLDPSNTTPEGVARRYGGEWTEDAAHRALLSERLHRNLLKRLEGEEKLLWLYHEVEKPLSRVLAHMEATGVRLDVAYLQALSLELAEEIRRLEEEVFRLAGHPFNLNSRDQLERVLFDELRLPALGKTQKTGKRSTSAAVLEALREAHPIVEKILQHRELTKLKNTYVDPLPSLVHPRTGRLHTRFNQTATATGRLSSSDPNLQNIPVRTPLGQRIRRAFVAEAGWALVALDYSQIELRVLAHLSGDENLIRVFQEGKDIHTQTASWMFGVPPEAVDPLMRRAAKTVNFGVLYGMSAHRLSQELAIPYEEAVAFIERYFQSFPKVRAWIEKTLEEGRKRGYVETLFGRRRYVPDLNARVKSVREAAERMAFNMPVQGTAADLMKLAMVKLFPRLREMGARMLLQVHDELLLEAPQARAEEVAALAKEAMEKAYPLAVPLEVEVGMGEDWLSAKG

[4] = tested on: T1, DNA polymerase 3173 (uncultured hot spring virus (Octopus Spring)); settings: Km for primed M13 DNA; 70 C; dNTPs in excess

Substance	activity [1] [nmol dTTP]	activity [2] [nmol dTTP]	activity [3] [nmol dTTP]	K half [4] [nM]
poly rA:oligo dT	1.04	1.11	0.802	–
primed single-stranded M13 DNA	–	–	–	5.3
